Patent US20040180443, “Methods for transfer of DNA segments” (Stratagene, published 2004)

Target: Cre recombinase (Bacteriophage P1?, UniProt P06956 P06956:1-343)
Test: in vitro loxP x loxP plasmid co-integration, 50 mM Tris pH 7.5, 10 mM MgCl2, 30 mM NaCl, 37 C 45 min; read out by product vector rescue in E. coli (1.2x10^4 and 8.2x10^5 colonies per ug second vector)
Conditions: tags: Stratagene; chain copies: 4
Procedure: To rescue the product vector from the co-integrate vector, chemically competent XL1-blue or XL10 gold (kanR) (both strains from Stratagene, LaJolla, Calif.) were transformed with the above recombination reaction. Either strain has high transformation efficiencies and carries the F′ plasmid required to render the host infectable by filamentous phages such as f1. Transformation was performed by mixing 2.5 μl of the recombination reaction with 100 μl of competent cells, incubation on ice for 20 minutes and subsequent hear shock at 42° C. for 45 seconds. After the heat shock, 1 ml of 1×NZY, 10 μl of Exassist helper phage (10⁸ pfu; Stratagene, LaJolla, Calif.) and 100 μl of a fresh stationary culture of XLOLR-S^R were added and incubated for 2 hours at 37° C. while shaking. The XLOLR-S^R strain serves as the secondary host. The secondary host can be selected for with Streptomycin. Exassist is used as a helper phage allowing packaging of the rescued single-stranded product vector. […]
Plasmid DNA of 18 blue colonies were analyzed by restriction digestion. […] All white colonies analyzed by restriction digestion were indistinguishable from the second vector and presumably resulted form mutations in the rpsL insert serving as the negative selectable marker. […]

Sequence of Cre recombinase (P06956 whole entry, one chain of several): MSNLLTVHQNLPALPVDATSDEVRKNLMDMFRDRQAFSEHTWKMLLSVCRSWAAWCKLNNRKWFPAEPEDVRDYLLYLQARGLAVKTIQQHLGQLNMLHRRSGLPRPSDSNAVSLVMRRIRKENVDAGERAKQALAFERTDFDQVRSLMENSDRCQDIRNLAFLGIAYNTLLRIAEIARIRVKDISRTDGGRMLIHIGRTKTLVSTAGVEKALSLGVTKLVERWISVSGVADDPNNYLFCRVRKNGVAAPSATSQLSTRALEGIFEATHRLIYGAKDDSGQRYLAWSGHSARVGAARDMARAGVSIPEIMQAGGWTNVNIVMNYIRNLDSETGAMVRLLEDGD

B1: loxP site (wild type) in first and second vectors (dsDNA)
DNA 1: CGAATTGGAGCTATAACTTCGTATAATGTATGCTATACGAAGTTATCATATGGCGGTGGCGGCCGCTCTAGAAC
DNA 2: GTTCTAGAGCGGCCGCCACCGCCATATGATAACTTCGTATAGCATACATTATACGAAGTTATAGCTCCAATTCG
**Q.** Does B1 bind?
**A.** binds
